For assay [1], the target named is T1, human CD20 (human, UniProt P11836 1-297).
T1 construct: The forward primer starts at codon 2; also called hCD20; CHO-K1-hCD20
T1 sequence: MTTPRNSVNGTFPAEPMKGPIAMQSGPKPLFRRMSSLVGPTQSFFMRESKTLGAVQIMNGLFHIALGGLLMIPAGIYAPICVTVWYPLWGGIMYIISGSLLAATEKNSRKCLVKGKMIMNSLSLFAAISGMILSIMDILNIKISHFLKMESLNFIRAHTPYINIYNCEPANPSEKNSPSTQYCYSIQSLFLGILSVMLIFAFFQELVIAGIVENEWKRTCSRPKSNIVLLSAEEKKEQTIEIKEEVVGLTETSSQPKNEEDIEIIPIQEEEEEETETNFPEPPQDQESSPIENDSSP
The experiment in a line: cell ELISA, crude periplasmic extract, CHO-K1 expressing human CD20 against parental CHO-K1. For orientation: ELISA stands for enzyme-linked immunosorbent assay.

The target in assay [2] is T1, human CD20. The assay is described as follows: FACS, 5 ug/ml VHH on CHO-K1 cells stably expressing human CD20, FITC anti-his detection. As for the experimental part: (§1) To determine the binding activities of the VHHs specific for human or mouse CD20, FACS analysis was carried out. Specifically, CHO-K1 cells and CHO-K1 cells stably expressing human or mouse CD20 were incubated with 5 μg/ml of the VHHs produced in accordance with the application. A monoclonal FITC labelled anti-his antibody (Genscript #A01620) was applied as secondary stain. FACS analysis was done on a FacsCalibur flow cytometer (Becton Dickinson).
Background: A flow cytometer gives signals particle by particle.

The next assay addresses T2, mouse CD20 (mouse, UniProt P19437 1-291).
T2 construct: whole, on cells; also called mCD20; CHO-K1-mCD20
T2 sequence (looked up): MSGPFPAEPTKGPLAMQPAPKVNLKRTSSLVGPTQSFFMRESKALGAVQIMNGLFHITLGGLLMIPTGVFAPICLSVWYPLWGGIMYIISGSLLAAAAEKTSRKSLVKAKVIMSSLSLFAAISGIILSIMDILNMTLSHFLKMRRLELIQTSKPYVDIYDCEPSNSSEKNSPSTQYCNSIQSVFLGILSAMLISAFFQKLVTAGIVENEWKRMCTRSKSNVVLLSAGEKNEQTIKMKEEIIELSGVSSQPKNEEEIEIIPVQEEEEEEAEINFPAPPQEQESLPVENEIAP
The experiment in a line: FACS, 5 ug/ml VHH on CHO-K1 cells stably expressing mouse CD20, FITC anti-his detection. The protocol: as §1

B1: 2HCD40 (VHH)
VHH: QVQLQESGGGLVQAGGSLRLSCAASGRTVGSYSMGWFRQAPGKEREFVAAVTWSGASPYYADSVKGRFTISRDNAKNTVYLQMNSLKPEDTAVYYCAANPTYSGGWHAEYWGQGTQVTVSS
notes: Whole entry = VHH-AAA-HA-His6 (pMECS construct)
In the case of B1, in the assay with human CD20 [1], the binding result was “binds”.

B2: 2HCD17 (VHH)
VHH: QVQLQESGGGLVQAGGSLRLSCAASGRTVGSYSMGWFRQAPGKEREFVAAVIWSGASPYYADSVKGRFTISRDNAKNTVYLQMNSLKPEDTAVYYCAANPTYSGGWHAEYWGQGTQVTVSS
notes: as for B1
On to B2, for which, in the assay with human CD20 [2], the binding result was “binds”.

B3: 2HCD59 (VHH)
VHH: QVQLQESGGGSEQPGGSLRLSCAASGRTVGSYSMGWFRQAPGKEREFVAAVTRSGASPYYADSVKGRFTISRDNAKNTVYLQMNSLKPEDTAVYYCAANPTYSGGWHAEYWGQGTQVTVSS
notes: as for B1
On to B3, for which the binding result with human CD20 [1] was “binds”.

B4: 2HCD88 (VHH)
VHH: QVQLQESGGGLVQAGDSLRLSCAASGRTVGSYSMGWFRQAPGKEREFVAAVTWSGASPYYADSVKGRFTISRDNAKNTVYLQMNSLKPEDTAVYYCAANPTYSGGWHAEYWGQGTQVTVSS
notes: as for B1
B4: in the assay with human CD20 [1], the binding result was “binds”.

B5: 2HCD68 (VHH)
VHH: QVQLQESGGGLVQPGGSLRLSCAASRFTLDYYAIGWFRQAPGKEREFVAAVTWSGASPYYADSVKGRFTISRDNAKNTVYLQMNSLKPEDTAVYYCAANPTYSGGWHAEYWGQGTQVTVSS
notes: as for B1
Take B5: in the assay with human CD20 [1], the binding result is reported as “binds”.

B6: 2HCD25 (VHH)
VHH: QVQLQESGGGLAQAGGSLRLSCAASGRTFSMGWFRQAPGKEREFVAAITYSGGSPYYASSVRGRFTISRDNAKNTVYLQMNSLKPEDTAVYYCAANPTYGSDWNAENWGQGTQVTVSS
notes: Whole entry = VHH-AAA-HA-His6 (pMECS construct); also called hCD20Nb
On to B6, for which the binding result with human CD20 [2] was “binds”.

B7: 2HCD78 (VHH)
VHH: QVQLQESGGGLVQPGGSLRLSCAASGRTFSMGWFRQAPGKEREFVAAITYSGGSPYYASSVRGRFTISRDNAKNTVYLQMNSLKPEDTAVYYCAANPTYGSDWNAENWGQGTQVTVSS
notes: as for B1
B7: in the assay with human CD20 [2], the binding result is “binds”.

B8: 2HCD43 (VHH)
VHH: QVQLQESGGGLVQPGGSLRLSCTASGFTLDYYAIGWLRQAPGKEREGVSCISSSGGSTNYADSVKGRFTISRDNAKNTVYLLMNSLKPEDTAVYYCAAERTWVSNYYCSGDGDGYDYDYWGQGTQVTVSS
notes: as for B1
As for B8, the binding result with human CD20 [1] is on record as “binds”.

B9: R3MCD137 (VHH)
VHH: QVQLQESGGGSVQAGGSLRLSCAASGSTFSIKAMGWYRQAPGKQRELVAAFISGRGSTKYADSVKGRFAISRDNAKNTMYLQMDSLEPEDTAVYYCYIVLPTGGGSAMDYWGEGTQVTVSS
notes: as for B1
In the case of B9, the binding result with mouse CD20 is recorded as “binds”.

B10: R3MCD22 (VHH)
VHH: QVQLQESGGGVVQAGGSLRLSCAASGSTFSIKAMGWYRQAPGKQRDLVAGFISGRGSAKYADSVKGRFAISRDNAKNTMYLQMDSLKPEDTAVYYCYIVLTTGGGSAMDYWGQGTQVTVSS
notes: as for B1
As for B10, in the assay with mouse CD20, the binding result is given as “binds”.

B11: 2HCD73 (VHH)
VHH: QVQLQESGGGLVQAGGSLRLSCAASGRTFSRQSMGWFRQAPGEEREFVAVITWSGGSPYYADSVRGRFTISRDNAKNTVYLQMNSLKPEDTAVYYCAAPVSYGSQWLADYWGQGTQVTVSS
notes: as for B1
Take B11: the binding result with human CD20 [2] is reported as “binds”.

B12: R3CD105 (VHH)
VHH: QVQLQESGGGLVQAGGSLRLSCAASGRTFSNYNMGWFRQAPGKEREFVAAIDWSGGSPYYAASVRGRFTISRDNAENTVYLQMNSLKPEDTAVYYCAAPLSYGSTWLADYWGQGTQVTVSS
notes: as for B1
Consider B12, for which, in the assay with human CD20 [1], the binding result is on record as “binds”.

B13: 2HCD81 (VHH)
VHH: QVQLQESGGGLVQAGGSLRLSCAASGRTFSSYNMGWFRQAPGKEREFVAVISWSGGSPYYADSVKGRFTISRDNAKNTVYLQMNSLKPEDTAVYYCAAPVSYGSSWLADYWGQGTQVTVSS
notes: as for B1
Regarding B13, the binding result with human CD20 [2] is on record as “binds”.

The record behind these values is patent publication US20190092871A1 (VIB VZW, published 2019).
